Earlier results as cited in paper PMC8444577.

Biological target: IL-18 (Homo sapiens) (UniProt Q14116)
Sequence (Q14116 37-193): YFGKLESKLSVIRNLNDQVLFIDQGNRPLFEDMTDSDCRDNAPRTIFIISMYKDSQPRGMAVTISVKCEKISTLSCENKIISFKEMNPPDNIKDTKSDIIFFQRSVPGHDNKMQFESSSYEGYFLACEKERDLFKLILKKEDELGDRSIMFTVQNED

Sequence of IL-18BP (O95998 31-194): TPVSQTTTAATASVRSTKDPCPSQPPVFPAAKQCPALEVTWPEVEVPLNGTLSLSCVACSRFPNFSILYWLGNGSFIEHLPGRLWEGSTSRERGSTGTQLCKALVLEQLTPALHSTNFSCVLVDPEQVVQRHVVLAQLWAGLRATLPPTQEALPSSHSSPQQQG

IL-18BP (from UniProt O95998)
Kd: 0.4 nM
